Source: the supplement of paper PMC7877785
± gives the uncertainty stated by the source.

Test: self-splicing fitness, log relative to wild type (ln ratio); higher = more splicing; Tetrahymena group I intron in knt gene, E. coli kanamycin selection, DiMSum; sequences stand for … in CUCUCU…GGAGGGAAAAGUUAUCAGGCAUGCACCUGGUAGCUAGUCUUUAAACCAAUAGAUUGCAUCGGUUUAAAAGGCAAGACCGUCAAAUUGCGGGAAAGGGGUCAACAGCCGUUCAGUACCAAGUCUCAGGGGAAACUUUGAGAUGGCCUUGCAAAGGGUAUGGUAAUAAGCUGACGGACAUGGUCCUAACCACGCAGCCAAGUCCUAAGUCAACAGAUCUUCUGUUGAUAUGGAUGCAGUUCACAGACUAAAUGUCGGUCGGGGAAGAUGUAUUCUUCUCAUAAGAUAUAGUCGGACCUCUCCUUAAUGGGAGCUAGCGGAUGAAGUGAUGCAACACUGGAGCCGCUGGGAACUAAUUUGUAUGCGAAAGUAUAUUGAUUAGUUUUGGAGUACUCGUGGUCG
Method in brief: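 The eight P1ex-region nucleotides of an intron in the knt kanamycin-resistance gene on pET-22b(+) were all randomised and the library put into E. coli BL21(DE3). Six replicate transformations were grown overnight at 37°C or 30°C on LB agar with or without 25 μg/mL kanamycin, together with 100 μg/mL carbenicillin, 50 μM IPTG and 0.2% rhamnose. Colonies were pooled and amplicon-sequenced on an Illumina HiSeq 2500. Fitness from DiMSum is the error-weighted combination of wild-type-normalised replicate fold changes, kanamycin over none.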

Sequence	self-splicing fitness (ln) (30 °C)	self-splicing fitness (ln) (37 °C)
UAAAAGCAAUAUUACGAGGG	-3.83 ± 0.33	-2.47 ± 0.3
UAAAAGCAAUAUUACGAGUC	-3.45 ± 0.27	-3.74 ± 0.39
UAAAAGCAAUAUUACGAUAC	-2.36 ± 0.31	-3.93 ± 0.46
UAAAAGCAAUAUUACGAUGU	-2.44 ± 0.15	-1.33 ± 0.19
UAAAAGCAAUAUUACGCAAA	-3.71 ± 0.4	-0.788 ± 0.18
UAAAAGCAAUAUUACGCAUG	-0.716 ± 0.068	-0.257 ± 0.1
UAAAAGCAAUAUUACGCCCC	-3.1 ± 0.49	0.13 ± 0.35
UAAAAGCAAUAUUACGGACU	-1.21 ± 0.072	-0.711 ± 0.094
UAAAAGCAAUAUUACGGCCG	0.132 ± 0.12	0.444 ± 0.17
UAAAAGCAAUAUUACGGCGA	-0.67 ± 0.11	0.453 ± 0.13
UAAAAGCAAUAUUACGGCGU	-1.12 ± 0.084	-0.0589 ± 0.1
UAAAAGCAAUAUUACGGCUA	0.159 ± 0.073	-0.0882 ± 0.084
UAAAAGCAAUAUUACGGGGA	-1.73 ± 0.12	-0.962 ± 0.12
UAAAAGCAAUAUUACGGGGG	-2.62 ± 0.19	-2.43 ± 0.24
UAAAAGCAAUAUUACGGGUG	-0.67 ± 0.042	-0.46 ± 0.061
UAAAAGCAAUAUUACGGUCG	-0.35 ± 0.087	-0.0674 ± 0.1
UAAAAGCAAUAUUACGUAGC	-3.26 ± 0.19	-2.72 ± 0.18
UAAAAGCAAUAUUACGUAUC	-3.81 ± 0.35	-2.07 ± 0.23
UAAAAGCAAUAUUACGUUGG	-2.36 ± 0.1	-1.42 ± 0.12
UAAAAGCAAUAUUACGUUUC	-3.32 ± 0.14	-2.36 ± 0.19
UAACAGCAAUAUUACGCCAC	-3.93 ± 0.35	-1.54 ± 0.23
UAACAGCAAUAUUACGCCCG	-0.202 ± 0.16	-0.59 ± 0.18
UAACAGCAAUAUUACGCGGU	-3.25 ± 0.17	-3.29 ± 0.15
UAACAGCAAUAUUACGCUCC	-2.62 ± 0.32	-1.22 ± 0.3
UAACAGCAAUAUUACGCUUG	-0.975 ± 0.06	-0.577 ± 0.082

Sequence	self-splicing fitness (ln) (30 °C)	self-splicing fitness (ln) (37 °C)
UAACAGCAAUAUUACGGAAC	-3.85 ± 0.24	-4.18 ± 0.39
UAACAGCAAUAUUACGGACC	-3.44 ± 0.43	-1.98 ± 0.28
UAACAGCAAUAUUACGGAGA	-3.27 ± 0.21	-1.1 ± 0.11
UAACAGCAAUAUUACGGCUA	0.184 ± 0.052	-0.0982 ± 0.067
UAACAGCAAUAUUACGGGAA	-1.76 ± 0.13	-1.35 ± 0.11
UAACAGCAAUAUUACGGUAU	-3.01 ± 0.11	-2.06 ± 0.17
UAACAGCAAUAUUACGGUUC	-2.65 ± 0.069	-1.28 ± 0.08
UAACAGCAAUAUUACGUAAC	-2.93 ± 0.17	-1.62 ± 0.16
UAACAGCAAUAUUACGUAGU	-3.35 ± 0.14	-2.7 ± 0.18
UAACAGCAAUAUUACGUCGA	-1.03 ± 0.12	0.186 ± 0.098
UAACAGCAAUAUUACGUCGG	-0.858 ± 0.066	-0.53 ± 0.08
UAACAGCAAUAUUACGUGAC	-3.68 ± 0.2	-2.46 ± 0.17
UAACAGCAAUAUUACGUUCA	-0.481 ± 0.049	0.0141 ± 0.07
UAACAGCAAUAUUACGUUCC	-2.23 ± 0.11	-2.28 ± 0.18
UAACAGCAAUAUUACGUUGG	-1.67 ± 0.083	-0.828 ± 0.096
UAAGAGCAAUAUUACGAAGA	–	-1.98 ± 0.38
UAAGAGCAAUAUUACGAGCC	-3.56 ± 0.25	-2.26 ± 0.24
UAAGAGCAAUAUUACGAUAG	-3.46 ± 0.31	-2.12 ± 0.33
UAAGAGCAAUAUUACGAUCU	-2.51 ± 0.24	-2.86 ± 0.36
UAAGAGCAAUAUUACGAUGA	-2.15 ± 0.22	-2.63 ± 0.38
UAAGAGCAAUAUUACGCAAC	–	-2.19 ± 0.45
UAAGAGCAAUAUUACGCAUG	-2.75 ± 0.28	-1.2 ± 0.23
UAAGAGCAAUAUUACGCGUC	-3.81 ± 0.25	-2.29 ± 0.23
UAAGAGCAAUAUUACGCUCG	–	-0.845 ± 0.23
UAAGAGCAAUAUUACGGAAC	-2.54 ± 0.33	-3.2 ± 0.46

Sequence	self-splicing fitness (ln) (30 °C)	self-splicing fitness (ln) (37 °C)
UAAGAGCAAUAUUACGGGCU	–	-2.53 ± 0.32
UAAGAGCAAUAUUACGGGGC	-4 ± 0.42	-2.83 ± 0.32
UAAGAGCAAUAUUACGGGUU	-3.51 ± 0.29	-2.06 ± 0.31
UAAGAGCAAUAUUACGGUGC	-3.43 ± 0.28	–
UAAGAGCAAUAUUACGUAGA	-3.89 ± 0.23	-1.34 ± 0.28
UAAGAGCAAUAUUACGUAGC	-4.28 ± 0.31	-2.71 ± 0.28
UAAGAGCAAUAUUACGUAUA	-2.64 ± 0.26	-1.97 ± 0.25
UAAGAGCAAUAUUACGUCCC	-3.99 ± 0.42	–
UAAGAGCAAUAUUACGUGCA	-2.09 ± 0.2	-0.84 ± 0.2
UAAUAGCAAUAUUACGAAGU	–	-1.55 ± 0.47
UAAUAGCAAUAUUACGAGGA	-3.68 ± 0.25	-2.62 ± 0.16
UAAUAGCAAUAUUACGAGUA	-2.31 ± 0.14	-0.79 ± 0.11
UAAUAGCAAUAUUACGAGUU	-2.79 ± 0.23	-2.31 ± 0.27
UAAUAGCAAUAUUACGAUAC	-3.78 ± 0.43	–
UAAUAGCAAUAUUACGCACU	-1.16 ± 0.11	-1.02 ± 0.12
UAAUAGCAAUAUUACGCCAG	-1.07 ± 0.2	-1.2 ± 0.32
UAAUAGCAAUAUUACGCGAU	-3.2 ± 0.28	-1.86 ± 0.24
UAAUAGCAAUAUUACGGAAC	-3.01 ± 0.2	-0.714 ± 0.16
UAAUAGCAAUAUUACGGCCU	-1.16 ± 0.14	-0.77 ± 0.19
UAAUAGCAAUAUUACGGUCU	-2.75 ± 0.16	-2.49 ± 0.16
UAAUAGCAAUAUUACGUAAU	-3.25 ± 0.29	-2.52 ± 0.34
UAAUAGCAAUAUUACGUAGA	-3.52 ± 0.18	-1.98 ± 0.17
UAAUAGCAAUAUUACGUAGU	-3.82 ± 0.19	-2.44 ± 0.23
UAAUAGCAAUAUUACGUCGA	-2.4 ± 0.17	-0.993 ± 0.16
UAAUAGCAAUAUUACGUCUC	-3.41 ± 0.26	–

Sequence	self-splicing fitness (ln) (30 °C)	self-splicing fitness (ln) (37 °C)
UAAUAGCAAUAUUACGUCUG	-0.694 ± 0.075	-0.276 ± 0.089
UACAAGCAAUAUUACGAAAA	-1.94 ± 0.19	-1.22 ± 0.15
UACAAGCAAUAUUACGAAGA	-2.08 ± 0.27	-2.11 ± 0.21
UACAAGCAAUAUUACGACGU	-0.941 ± 0.07	-0.409 ± 0.081
UACAAGCAAUAUUACGAGGC	-2.4 ± 0.3	-1.84 ± 0.28
UACAAGCAAUAUUACGAGUA	-2.13 ± 0.08	-0.707 ± 0.078
UACAAGCAAUAUUACGAGUC	-3.06 ± 0.11	-1.93 ± 0.15
UACAAGCAAUAUUACGAUGU	-3.72 ± 0.17	-1.96 ± 0.14
UACAAGCAAUAUUACGCCUA	0.14 ± 0.067	-0.0341 ± 0.071
UACAAGCAAUAUUACGCGGG	-2.43 ± 0.086	-1.25 ± 0.099
UACAAGCAAUAUUACGCGUA	-2.92 ± 0.24	-2.76 ± 0.33
UACAAGCAAUAUUACGCUAG	-2.16 ± 0.11	-1.13 ± 0.11
UACAAGCAAUAUUACGGAAG	-4.3 ± 0.46	-2.46 ± 0.34
UACAAGCAAUAUUACGGAUC	-2.59 ± 0.21	0.047 ± 0.15
UACAAGCAAUAUUACGGGCG	-0.448 ± 0.1	-0.308 ± 0.11
UACAAGCAAUAUUACGGUAU	-3.83 ± 0.21	-2.54 ± 0.16
UACAAGCAAUAUUACGGUCA	0.157 ± 0.062	0.514 ± 0.072
UACAAGCAAUAUUACGUAGG	-4 ± 0.26	-2.78 ± 0.27
UACAAGCAAUAUUACGUAGU	-3.88 ± 0.17	-2.18 ± 0.15
UACAAGCAAUAUUACGUAUC	-3.94 ± 0.24	-2.69 ± 0.21
UACAAGCAAUAUUACGUGAA	-2.42 ± 0.078	-1.7 ± 0.1
UACAAGCAAUAUUACGUGCC	-2.49 ± 0.15	-1.53 ± 0.14
UACAAGCAAUAUUACGUUGG	-3.19 ± 0.12	-1.41 ± 0.1
